Test results published in patent CN113150137A.

Target: 重组NDM-1蛋白 (新德里金属β-内酰胺酶, 肺炎克雷伯菌) (肺炎克雷伯菌 (Klebsiella pneumoniae)) (UniProt C7C422)
Experiment: indirect ELISA, NDM-1 coated at 100 ng/well, purified antibody diluted 1:10000 to 1:2560000, positive if the ratio to the negative control is >2.1

UniProt C7C422, sequence (C7C422 29-270 limits assumed): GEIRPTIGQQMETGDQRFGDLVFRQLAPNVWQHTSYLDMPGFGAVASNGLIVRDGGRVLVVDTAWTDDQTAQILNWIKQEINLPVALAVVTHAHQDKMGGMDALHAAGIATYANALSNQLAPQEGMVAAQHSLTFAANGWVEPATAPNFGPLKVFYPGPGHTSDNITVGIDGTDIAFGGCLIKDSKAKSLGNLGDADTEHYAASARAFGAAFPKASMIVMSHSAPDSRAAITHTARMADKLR

| Binder | 效价 (ELISA titer, highest positive dilution) (fold dilution) |
| --- | --- |
| 单克隆抗体5B9 (antibody, V domains shown) VH: EVQLVESGGGLVKPGGSLKLSCAASGFTFSSYAMSWVRQSPEKRLEWVADISSGGSYTYYPDTVTGRFTISRDNAKNTLYLEMSSLGSEDTAMYYCAREYGGGFDYWGQGTTLTVSS VL: DIQMTQSPASLSASVGETVTITCRASGNIHNYLAWYQQKQGKSPQLLVYNAKTLADGVPSRFSGSGSGTQYSLKINSLQPEDFGSYYCQHFWSIPRTFGGGTKLEIK | 1e+06 |
| 单克隆抗体5G6 (antibody, V domains shown) VH: EVQLVESGGGLVKPGGSLKLSCAASGFTFSNYAMSWVRQSPEKRLEWVADISSGGSYTYYPDTVTGRFTISRDNAKNTLYLEMTSLRSEDTAMYYCAREYGGGFDYWGQGTTLTVSS VL: DIQMTQSPASLSASVGETVTITCRASGNIHNYLAWYQQKQGKSPQLLVYNAKTLADGVPSRFSGSGSGTQYSLKINSLQPEDFGNYYCQHFWSIPRTFGGGTKLEIK | 1e+06 |
| 单克隆抗体7C10 (antibody, V domains shown) VH: QVQLQQPGAELVRPGASVRLSCKASGYTFTNYWMNWVKQRPGQGLEWIGSINPSDGYTKYNQKFKDKATLTVDKSSSTAYLQLSSPTSEDSAVYYCTRKKVNYDYAMDYWGQGTSVTVSS VL: DIVMSQSPSSLAVSVGEKVTMSCKSSQSLLYSSNQKNYLAWYQQKPGQSPKLLIYWASTRESGVPDRFTGSGSGTDFTLTISSVKAEDLAFYYCHQYYSYPYTFGGGTKLERK | 600000 |
